Experimental data from publication PMC10198636 (Science Advances, 2023).

Biological target: Cul3(N), recombinant N-terminal domain of human Cul3 (human, UniProt Q13618 1-417)
Test: ITC

Sequence of Cul3(N), recombinant N-terminal domain of human Cul3 (Q13618 1-417): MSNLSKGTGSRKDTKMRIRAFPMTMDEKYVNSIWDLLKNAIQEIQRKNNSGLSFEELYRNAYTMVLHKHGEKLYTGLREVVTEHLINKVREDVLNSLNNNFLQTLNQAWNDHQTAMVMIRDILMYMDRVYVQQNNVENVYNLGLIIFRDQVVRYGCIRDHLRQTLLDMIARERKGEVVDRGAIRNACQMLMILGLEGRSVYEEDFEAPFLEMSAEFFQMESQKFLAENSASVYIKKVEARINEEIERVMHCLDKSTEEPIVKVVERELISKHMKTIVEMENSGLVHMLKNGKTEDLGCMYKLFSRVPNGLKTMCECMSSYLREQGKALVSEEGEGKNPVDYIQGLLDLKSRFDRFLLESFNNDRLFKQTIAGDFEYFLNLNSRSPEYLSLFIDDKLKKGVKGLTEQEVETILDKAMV

| Binder | Kd |
| --- | --- |
| KLHL3(N), recombinant N-terminal portion of human KLHL3 spanning the BTB and BACK domains (domain or fragment) MEGESVKLSSQTLIQAGDDEKNQRTITVNPAHMGKAFKVMNELRSKQLLCDVMIVAEDVEIEAHRVVLAACSPYFCAMFTGDMSESKAKKIEIKDVDGQTLSKLIDYIYTAEIEVTEENVQVLLPAASLLQLMDVRQNCCDFLQSQLHPTNCLGIRAFADVHTCTDLLQQANAYAEQHFPEVMLGEEFLSLSLDQVCSLISSDKLTVSSEEKVFEAVISWINYEKETRLEHMAKLMEHVRLPLLPRDYLVQTVEEEALIKNNNTCKDFLIEAMKYHLLP | 13.8 nM |
| Keap1(N), recombinant N-terminal portion of human Keap1 spanning the BTB and BACK domains (domain or fragment) MQPDPRPSGAGACCRFLPLQSQCPEGAGDAVMYASTECKAEVTPSQHGNRTFSYTLEDHTKQAFGIMNELRLSQQLCDVTLQVKYQDAPAAQFMAHKVVLASSSPVFKAMFTNGLREQGMEVVSIEGIHPKVMERLIEFAYTASISMGEKCVLHVMNGAVMYQIDSVVRACSDFLVQQLDPSNAIGIANFAEQIGCVELHQRAREYIYMHFGEVAKQEEFFNLSHCQLVTLISRDDLNVRCESEVFHACINWVKYDCEQRRFYVQALLRAVRCHSLTPNFLQMQLQKCEILQSDSRCKDYLVKIFEELT | 562 nM |
